Laboratory results from US20180009908.
Residue numbers refer to the chain shown, from its start. In names and notes the source's numbering stands.

Key:
[1] = LCMS, IgG4 BsAb co-expression; HCB homodimer species
[2] = LCMS, IgG1 BsAb co-expression; HCB homodimer species
[3] = target: T1, HA-tagged human IgG1 Fc portion with CH3 mutations Y349S, K370Y, T366V, K409V; assay: UPLC SEC of protein G-purified one-arm antibody co-expressed in HEK293F
T1 chain: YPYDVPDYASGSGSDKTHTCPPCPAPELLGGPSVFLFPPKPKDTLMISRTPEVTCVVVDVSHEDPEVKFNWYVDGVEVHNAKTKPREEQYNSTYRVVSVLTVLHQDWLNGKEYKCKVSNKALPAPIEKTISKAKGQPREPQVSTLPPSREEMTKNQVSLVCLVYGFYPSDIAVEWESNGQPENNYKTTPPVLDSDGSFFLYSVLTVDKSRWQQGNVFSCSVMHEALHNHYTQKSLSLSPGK

[4] = target: T2, HA-tagged human IgG1 Fc portion with CH3 mutations Y349S, K370Y, T366M, K409V; assay: as above
T2 chain: T1 chain with V160M

[5] = target: matuzumab HC_20.8_B + matuzumab LC (IgG1); assay: LCMS, IgG1 BsAb co-expression in HEK293F
[6] = target: matuzumab HC_20.8_B + matuzumab LC (IgG1); assay: LCMS, IgG1 BsAb co-expression; HCA/HCB heterodimer carrying two LC1
[7] = LCMS, IgG1 BsAb co-expression; HCA homodimer species
[8] = target: matuzumab HC_20.8_B + matuzumab LC (IgG1); assay: LCMS, IgG1 BsAb co-expression; HCA/HCB heterodimer carrying two LC2
[9] = pertuzumab × matuzumab bispecific

B1: BHA10 HC_7.8.60_B + BHA10 LC (IgG4 HC backbone) (protein)
chain 1: QVQLVQSGAEVKKPGSSVKVSCKASGYTFTTYYLHWVRYAPGQGLEWMGWIYPGNVHAQYNEKFKGRVTITADKSTSTAYMELSSLRSEDTAVYYCARSWEGFPYWGRGTTVTVSSASTKGPSVFPLAPCSRSTSESTAALGCLVKDYFPEPVTVSWNSGALTSGVHTFPAVLQSSGLYSLSSVVTVPSSSLGTKTYTCNVDHKPSNTKVDKRVESDYGPPCPPCPAPEAAGGPSVFLFPPKPKDTLMISRTPEVTCVVVDVSQEDPEVQFNWYVDGVEVHNAKTKPREEQFQSTYRVVSVLTVLHQDWLNGKEYKCKVSNKGLPSSIEKTISKAKGQPRRPRVYTLPPSQEEMTKNQVSLVCLVKGFYPSDIAVEWESNGQPENNYKTTPPVLDSDGSFFLYSVLTVDKSRWQEGNVFSCSVMHEALHNHYTQKSLSLSLG
chain 2: DIQMTQSPSSLSASVGDRVTITCKASQNVGINVAWYQRKPGDAPKSLISSASYRYSGVPSRFSGSGSGTDFTLTISSLQPEDFATYFCQQYDTYPFTFGQGTKVEIKRTVAAPSVFIFPPSKEQLKSGTASVVCLLNNFYPREAKVQWKVDNALQSGNSQESVTEQDSKDSTYSLSSTLTLSKADYEKHKVYACEVTHQGLSSPVTKSFNRGEC
With B1 as the protein, how does the % BB Homodimer (incorrect assembly) [1] read?
The % BB Homodimer (incorrect assembly) was 4.2%.

B2: BHA10 HC_20.8.34_B + BHA10 LC (IgG1) (protein)
chain 1: QVQLVQSGAEVKKPGSSVKVSCKASGYTFTTYYLHWVRYAPGQGLEWMGWIYPGNVHAQYNEKFKGRVTITADKSTSTAYMELSSLRSEDTAVYYCARSWEGFPYWGRGTTVTVSSASTKGPSVFPLAPCSKSTSGGTAALGCLVKDYFPEPVTVSWNSGALTSGVHTFPAVLQSSGLYSLSSVVTVPSSSLGTQTYICNVNHKPSNTKVDKKVEPDSGDKTHTCPPCPAPELLGGPSVFLFPPKPKDTLMISRTPEVTCVVVDVSHEDPEVKFNWYVDGVEVHNAKTKPREEQYNSTYRVVSVLTVLHQDWLNGKEYKCKVSNKALPAPIEKTISKAKGQPREPQVYTLPPSRGDMTKNQVQLTCLVKGFYPSDIAVEWESNGQPENNYKTTPPVLDSDGSFFLASKLTVDKSRWQQGNVFSCSVMHEALHNHYTQKSLSLSPGK
chain 2: B1 chain 2
Which % BB Homodimer (incorrect assembly) [2] does the source give for B2 here?
Its % BB Homodimer (incorrect assembly) is 0%.

B3: BHA10 HC_7.8.60_B + BHA10 LC (IgG1) (protein)
chain 1: B2 chain 1 with E344R, Q346R, G355E, D356E, Q363S, T365V, A406Y, K408V
chain 2: B1 chain 2
With B3 as the protein, how does the % BB Homodimer (incorrect assembly) [2] read?
The % BB Homodimer (incorrect assembly) was 1.6%.

B4: BHA10 HC_20.8_B + BHA10 LC (IgG1) (protein)
chain 1: B2 chain 1 with G355E
chain 2: B1 chain 2
With B4 as the protein, how does the % BB Homodimer (incorrect assembly) [2] read?
The % BB Homodimer (incorrect assembly) was 0%.

B5: BHA10 HC_20.8.34_B + BHA10 LC (IgG4 HC backbone) (protein)
chain 1: B1 chain 1 with R341E, R343Q, E352G, E353D, S360Q, V362T, Y403A, V405R
chain 2: B1 chain 2
For B5, which % BB Homodimer (incorrect assembly) [1] is on record?
The % BB Homodimer (incorrect assembly) was 0%.

B6: BHA10 HC_20.8.37_B + BHA10 LC (IgG1) (protein)
chain 1: B2 chain 1 with G355E, Q363R
chain 2: B1 chain 2
With B6 as the protein, how does the % BB Homodimer (incorrect assembly) [2] read?
Its % BB Homodimer (incorrect assembly) is 0%.

B7: matuzumab HC_20.8.34_B + matuzumab LC (IgG1) (protein)
chain 1: QVQLVQSGAEVKKPGASVKVSCKASGYTFTSHWMHWVRYAPGQGLEWIGEFNPSNGRTNYNEKFKSKATMTVDTSTNTAYMELSSLRSEDTAVYYCASRDYDYDGRYFDYWGRGTLVTVSSASTKGPSVFPLAPCSKSTSGGTAALGCLVKDYFPEPVTVSWNSGALTSGVHTFPAVLQSSGLYSLSSVVTVPSSSLGTQTYICNVNHKPSNTKVDKKVEPDSGDKTHTCPPCPAPELLGGPSVFLFPPKPKDTLMISRTPEVTCVVVDVSHEDPEVKFNWYVDGVEVHNAKTKPREEQYNSTYRVVSVLTVLHQDWLNGKEYKCKVSNKALPAPIEKTISKAKGQPREPQVYTLPPSRGDMTKNQVQLTCLVKGFYPSDIAVEWESNGQPENNYKTTPPVLDSDGSFFLASKLTVDKSRWQQGNVFSCSVMHEALHNHYTQKSLSLSPGK
chain 2: DIQMTQSPSSLSASVGDRVTITCSASSSVTYMYWYQRKPGDAPKLLIYDTSNLASGVPSRFSGSGSGTDYTFTISSLQPEDIATYYCQQWSSHIFTFGQGTKVEIKRTVAAPSVFIFPPSKEQLKSGTASVVCLLNNFYPREAKVQWKVDNALQSGNSQESVTEQDSKDSTYSLSSTLTLSKADYEKHKVYACEVTHQGLSSPVTKSFNRGEC
With B7 as the protein, how does the % BB Homodimer (incorrect assembly) ([2]; MetMAb × matuzumab bispecific) read?
The % BB Homodimer (incorrect assembly) was 0%.

And the % BB Homodimer (incorrect assembly) [2, 9]?
Its % BB Homodimer (incorrect assembly) is 1.6%.

B8: matuzumab HC_20.8.37_B + matuzumab LC (IgG1) (protein)
chain 1: B7 chain 1 with G360E, Q368R
chain 2: B7 chain 2
With B8 as the protein, how does the % BB Homodimer (incorrect assembly) ([2]; MetMAb × matuzumab bispecific) read?
Its % BB Homodimer (incorrect assembly) is 0%.

What about the % BB Homodimer (incorrect assembly) [2, 9] of the same protein?
The % BB Homodimer (incorrect assembly) was 0.5%.

B9: matuzumab HC_20.8.34_B + matuzumab LC (IgG4 HC backbone) (protein)
chain 1: QVQLVQSGAEVKKPGASVKVSCKASGYTFTSHWMHWVRYAPGQGLEWIGEFNPSNGRTNYNEKFKSKATMTVDTSTNTAYMELSSLRSEDTAVYYCASRDYDYDGRYFDYWGRGTLVTVSSASTKGPSVFPLAPCSRSTSESTAALGCLVKDYFPEPVTVSWNSGALTSGVHTFPAVLQSSGLYSLSSVVTVPSSSLGTKTYTCNVDHKPSNTKVDKRVESDYGPPCPPCPAPEAAGGPSVFLFPPKPKDTLMISRTPEVTCVVVDVSQEDPEVQFNWYVDGVEVHNAKTKPREEQFQSTYRVVSVLTVLHQDWLNGKEYKCKVSNKGLPSSIEKTISKAKGQPREPQVYTLPPSQGDMTKNQVQLTCLVKGFYPSDIAVEWESNGQPENNYKTTPPVLDSDGSFFLASRLTVDKSRWQEGNVFSCSVMHEALHNHYTQKSLSLSLG
chain 2: B7 chain 2
For B9, which % BB Homodimer (incorrect assembly) ([1]; MetMAb × Matuzumab IgG BsAbs (with select CH3 Designs)) is on record?
Its % BB Homodimer (incorrect assembly) is 0%.

And the % BB Homodimer (incorrect assembly) ([1]; Pertuzumab × Matuzumab IgG BsAbs (with select CH3 Designs))?
The % BB Homodimer (incorrect assembly) was 3.6%.

B10: matuzumab HC_7.8.60_B + matuzumab LC (IgG1) (protein)
chain 1: B7 chain 1 with E349R, Q351R, G360E, D361E, Q368S, T370V, A411Y, K413V
chain 2: B7 chain 2
Which % BB Homodimer (incorrect assembly) [2] does the source give for B10 here?
Its % BB Homodimer (incorrect assembly) is 1.3%.

B11: matuzumab HC_7.8.60_B + matuzumab LC (IgG4 HC backbone) (protein)
chain 1: B9 chain 1 with E346R, Q348R, G357E, D358E, Q365S, T367V, A408Y, R410V
chain 2: B7 chain 2
Which % BB Homodimer (incorrect assembly) [1] does the source give for B11 here?
Its % BB Homodimer (incorrect assembly) is 0%.

B12: anti-c-Met 5D5 VH-human IgG1 HC with CH3 mutations E357D, S364Q, Y407A, with 5D5 light chain (protein)
chain 1: EVQLVESGGGLVQPGGSLRLSCAASGYTFTSYWLHWVRQAPGKGLEWVGMIDPSNSDTRFNPNFKDRFTISADTSKNTAYLQMNSLRAEDTAVYYCATYRSYVTPLDYWGQGTLVTVSSASTKGPSVFPLAPSSKSTSGGTAALGCLVKDYFPEPVTVSWNSGALTSGVHTFPAVLQSSGLYSLSSVVTVPSSSLGTQTYICNVNHKPSNTKVDKRVEPKSCDKTHTCPPCPAPELLGGPSVFLFPPKPKDTLMISRTPEVTCVVVDVSHEDPEVKFNWYVDGVEVHNAKTKPREEQYNSTYRVVSVLTVLHQDWLNGKEYKCKVSNKALPAPIEKTISKAKGQPREPQVYTLPPSREDMTKNQVQLTCLVKGFYPSDIAVEWESNGQPENNYKTTPPVLDSDGSFFLASKLTVDKSRWQQGNVFSCSVMHEALHNHYTQKSLSLSPGK
chain 2: DIQMTQSPSSLSASVGDRVTITCKSSQSLLYTSSQKNYLAWYQQKPGKAPKLLIYWASTRESGVPSRFSGSGSGTDFTLTISSLQPEDFATYYCQQYYAYPWTFGQGTKVEIKRTVAAPSVFIFPPSDEQLKSGTASVVCLLNNFYPREAKVQWKVDNALQSGNSQESVTEQDSKDSTYSLSSTLTLSKADYEKHKVYACEVTHQGLSSPVTKSFNRGEC
For B12, which % heterodimer (UPLC) [3] is on record?
Its % heterodimer (UPLC) is 92.5%.

And the % heterodimer (UPLC) [4]?
The % heterodimer (UPLC) was 93%.

B13: anti-c-Met 5D5 VH-human IgG1 HC with CH3 mutations E357D, S364R, Y407A, with 5D5 light chain (protein)
chain 1: B12 chain 1 with Q366R
chain 2: B12 chain 2
Which % heterodimer (UPLC) [3] does the source give for B13 here?
The % heterodimer (UPLC) was 85%.

What about the % heterodimer (UPLC) [4] of the same protein?
Its % heterodimer (UPLC) is 85%.

B14: MetMAb HC_20.8_A + MetMAb LC (IgG1) (protein)
chain 1: EVQLVESGGGLVQPGGSLRLSCAASGYTFTSYWLHWVRKAPGKGLEWVGMIDPSNSDTRFNPEFKDRFTISADTSKNTAYLQMNSLRAEDTAVYYCATYRSYVTPLDYWGQGTLVTVSSASTKGPSVFPLAPSSKSTSGGTAALGCLVKDYFPEPVTVSWNSGALTSGVATGPAVLQSSGLYSLSSVVTVPSSSLGTQTYICNVNHKPSNTKVDKKVEPKSCDKTHTCPPCPAPELLGGPSVFLFPPKPKDTLMISRTPEVTCVVVDVSHEDPEVKFNWYVDGVEVHNAKTKPREEQYQSTYRVVSVLTVLHQDWLNGKEYKCKVSNKALPAPIEKTISKAKGQPREPQVSTLPPSREEMTKNQVSLVCLVYGFYPSDIAVEWESNGQPENNYKTTPPVLDSDGSFFLYSVLTVDKSRWQQGNVFSCSVMHEALHNHYTQKSLSLSPGK
chain 2: RIQMTQSPSSLSASVGDRVTITCKSSQSLLYTSSQKNYLAWYQDKPGKAPKLLIYWASTRESGVPSRFSGSGSGTDFTLTISSLQPEDFATYYCQQYYAYPWTFGQGTKVEIKGQPKAAPSVTLFPPSSEELQANKATLVCYISDFYPGAVTVAWKADSSPVKAGVETTTPSKQSNNKYAAWSYLSLTPEQWKSHRSYSCQVTHEGSTVEKTVAPTEC
Which results are given for B14?
% AB (LC1/LC2) (correct IgG BsAb assembly) [5]: 75.6%; % AB (2x LC1) (incorrect assembly) [6]: 0%; % AA Homodimer (incorrect assembly) [7]: 0%; % AB (2x LC2) (incorrect assembly) [8]: 24.4%
